Earlier results in article PMC6181577.

Molecular target: UBQLN2 UBA (Homo sapiens) (UniProt Q9UHD9)
Sequence (Q9UHD9 578-624): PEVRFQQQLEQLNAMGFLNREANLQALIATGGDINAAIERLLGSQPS

Chain of UBQLN2 UBL (Q9UHD9 33-107): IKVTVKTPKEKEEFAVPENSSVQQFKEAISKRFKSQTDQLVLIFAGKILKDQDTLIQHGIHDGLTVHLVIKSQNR

For UBQLN2 UBL (from UniProt Q9UHD9), the Kd is given as 175 µM.
